Bridges are numbered along the chain shown (N, C = ends). Where no end group is shown, it is not given here.
Target: guanylate cyclase C (human, UniProt P25092 24-1073)
Experiment: cell-based or functional assay

Sequence of guanylate cyclase C (P25092 24-1073): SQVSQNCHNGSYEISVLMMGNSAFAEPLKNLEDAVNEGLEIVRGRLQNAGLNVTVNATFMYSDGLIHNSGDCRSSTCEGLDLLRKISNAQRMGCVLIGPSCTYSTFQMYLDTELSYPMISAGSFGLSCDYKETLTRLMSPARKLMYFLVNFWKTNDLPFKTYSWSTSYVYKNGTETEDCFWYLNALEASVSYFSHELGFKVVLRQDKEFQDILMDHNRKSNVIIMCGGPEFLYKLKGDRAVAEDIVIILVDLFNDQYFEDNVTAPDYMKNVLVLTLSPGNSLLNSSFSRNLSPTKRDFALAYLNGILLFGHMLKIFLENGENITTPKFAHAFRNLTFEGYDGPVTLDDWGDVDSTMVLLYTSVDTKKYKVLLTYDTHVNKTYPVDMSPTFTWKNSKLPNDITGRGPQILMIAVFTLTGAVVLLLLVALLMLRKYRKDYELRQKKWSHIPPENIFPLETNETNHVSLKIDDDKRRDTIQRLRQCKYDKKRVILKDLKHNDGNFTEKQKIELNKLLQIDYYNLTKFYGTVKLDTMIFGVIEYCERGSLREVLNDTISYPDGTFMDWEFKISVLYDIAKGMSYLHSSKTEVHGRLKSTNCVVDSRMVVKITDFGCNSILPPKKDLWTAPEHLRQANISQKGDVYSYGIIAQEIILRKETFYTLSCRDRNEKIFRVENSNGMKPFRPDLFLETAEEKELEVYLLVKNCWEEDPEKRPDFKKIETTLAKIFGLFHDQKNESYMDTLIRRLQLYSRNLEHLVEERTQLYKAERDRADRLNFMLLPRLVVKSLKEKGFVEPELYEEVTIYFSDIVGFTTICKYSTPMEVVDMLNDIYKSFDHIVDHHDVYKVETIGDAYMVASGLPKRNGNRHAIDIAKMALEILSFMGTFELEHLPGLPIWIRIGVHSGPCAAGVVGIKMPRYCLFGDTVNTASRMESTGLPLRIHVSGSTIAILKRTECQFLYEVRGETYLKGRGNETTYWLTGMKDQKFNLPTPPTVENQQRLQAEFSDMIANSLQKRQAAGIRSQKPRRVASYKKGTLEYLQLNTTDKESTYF

stimulation of cGMP synthesis in T84 cells (peptide at 1.0 µM, 30 min), biological activity relative to SP-304: ~80 % of the biological activity of SP-304
Binder: NDECELCVNVACTGC (disulfide 4-12, 7-15) [SP-338]

From patent US20100221329A1 (SYNERGY PHARMACEUTICALS, published 2010)
